{"source": "paper PMC9791040", "about": "“CtrA activates the expression of glutathione S-transferase conferring oxidative stress resistance to Ehrlichia chaffeensis” (Frontiers in Cellular and Infection Microbiology, 2022)", "key": {"NCC(=O)O": {"system": "NCC(=O)O", "experiment": "inorganic phosphate formation, ascorbic acid-molybdate, OD750", "format": "biochemical, Ehrlichia chaffeensis", "conditions": "10 mM Na3ATP, 5 mM gamma-glutamylcysteine, 20 mM MgCl2, 50 mM KCl, 2 mM EDTA, 2.5 mM DTT, 100 mM Tris-HCl pH 8.2, 37°C, 30 min", "from_the_text": "inorganic phosphate formation, ascorbic acid-molybdate, OD750 on rGshB (E. chaffeensis GshB)"}, "[1]": {"system": "T1, GST-rCtrA (Ehrlichia chaffeensis), ORF:1c7d897d", "T1 sequence": "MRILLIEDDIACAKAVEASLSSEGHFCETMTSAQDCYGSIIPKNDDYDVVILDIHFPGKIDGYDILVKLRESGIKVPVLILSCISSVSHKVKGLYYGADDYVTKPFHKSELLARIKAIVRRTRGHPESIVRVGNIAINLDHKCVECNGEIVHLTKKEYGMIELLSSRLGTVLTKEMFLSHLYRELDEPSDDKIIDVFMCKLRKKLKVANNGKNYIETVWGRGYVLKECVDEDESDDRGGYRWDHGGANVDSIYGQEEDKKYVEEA", "experiment": "EMSA"}, "[2]": {"substrate": "N[C@@H](CCC(=O)O)C(=O)O", "experiment": "inorganic phosphate formation, ascorbic acid-molybdate, OD750", "format": "biochemical, Ehrlichia chaffeensis", "conditions": "5 mM ATP, 10 mM L-alpha-aminobutyric acid, 20 mM MgCl2, 50 mM KCl, 2 mM EDTA, 100 mM Tris-HCl pH 8.0, 37°C, 30 min", "from_the_text": "inorganic phosphate formation, ascorbic acid-molybdate, OD750 on SUMO-rGshA (E. chaffeensis GshA)"}}, "data": [{"molecule": "rGshB (E. chaffeensis GshB) (Ehrlichia chaffeensis str. Arkansas)", "values": [{"measurement": "Km", "setting": "NCC(=O)O", "value": "940 ± 320", "unit": "µM"}, {"measurement": "Vmax", "setting": "NCC(=O)O", "value": 0.63, "unit": "µmol/min/mg"}]}, {"molecule": "ATATAACCTAATAGTGACAAATAAATTAACAATAGTAGAAGTGTCATATAAAAGCAAGTCAGAATATAAATTTTTGTATAAAATATCGGTAACTTTTGTAAGGAAAATTTAATATATTACGTCAGGTAAGTAATAGCAAAAAAACTGGTTAAGTATAGTATCATGTGTAAAGGTGAGAAAAACAGCACTTATAAACTAGTCCCCCCCCCCCCCCTCTTATTGCTACATTCTTTTGCCACTATTTTTATTTACCTGCAGCA (double strand) [p28 promoter probe, 260 bp]", "values": [{"measurement": "binding", "setting": "[1]", "value": "no binding"}]}, {"molecule": "SUMO-rGshA (E. chaffeensis GshA) (Ehrlichia chaffeensis str. Arkansas) (protein, tag kept) MTVIIDTLNDILTKYKLDIENWFFNKFTKYNPVLNISVDLRVSDYKIAPVDTNIFPAGYNNFTEQSQIYASRLLREYVVNYANCSKILIIAENHTRNLKYIDSLIVLKNIVNNAGFVVEVGICNINQNIELISSTGRVINCLCLTNDNGVLRAGCRFIPDLILVNNDMTSGIPEVLQGLKYQSIMPSLFLGWFNRSKSNHFSIYKKLSKEFCESFNIDPWLISAFFSSCSNICFFNSQGIDDIANEVDVVISKIRNKFQLYSIKEQPYVFVKADNGTYGMGILVAYCGDDILMLNRKKRNKMKKIKDGNVVSSVIIQEGITTREIFNGYVAEPLVYFIGHTPSCYLYRYHSVKDRFSNLNSVGCDFIDISYKQQDILYWNIIGKIAVLAAAIEMHEISNVNVMEQNCLLS", "values": [{"measurement": "Km", "setting": "[2]", "value": "1030 ± 20", "unit": "µM"}, {"measurement": "Vmax", "setting": "[2]", "value": 0.52, "unit": "µmol/min/mg"}]}]}
